Molecular target: T1, human CD3 epsilon (human, UniProt P07766 23-126, limits assumed)
T1 construct: also called huCD3e
Assay: Octet, crude lysate
Procedure: Pool 2 consisted of paTCE molecules each containing PSMA.262 and one of 64 CD3.23 mutation combination variants. Stability and affinity of the individually expressed molecules in the form of crude lysate was evaluated by Octet. […] The binding of these anti-CD3 molecules (CD3.227, CD3.228, CD3.229 and CD3.230) to human and cynomolgus CD3 was measured by Octet and the Tm was measured by Differential Scanning Fluorimetry. All variants were paired with PSMA.262 except for CD3.23 which was paired with PSMA.5.

T1 sequence (P07766 23-126 limits assumed): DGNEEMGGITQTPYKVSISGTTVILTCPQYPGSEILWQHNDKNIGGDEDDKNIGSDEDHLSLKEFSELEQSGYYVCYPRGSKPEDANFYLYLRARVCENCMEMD

Row | Binder | Kd [µM]
1 | CD3.245 (bispecific antibody, V domains shown, paTCE with PSMA.262; also called AC3676) VH: EVQLVESGGGIVQPGGSLRLSCAASGFTFNTYAMNWVRQAPGKGLEWVGRIRSKYNNGATYYADSVKGRFTISRDDSKNTLYLQMNELKTEDTAVYYCVRHENFGNSYVSWFAHWGQGTLVTVSS VL: ELVVTQEPSLTVSPGGTVTLTCRSSNGAVTSSNYANWVQQKPGQAPRGLIGGTNKRAPGTPARFSGSLLGGKAALTLSGVQPEDEAVYYCALWYPNLWVFGGGTKLTVL | 0.0193
2 | CD3.241 (bispecific antibody, V domains shown, paTCE with PSMA.262; also called AC3672) VH: EVQLVESGGGIVQPGGSLRLSCAASGFTFNTYAMNWVRQAPGKGLEWVARIRSKTNNYATTYADSVKDRFTISRDDSKNTVYLQMNSLKTEDTAVYYCVRHENFGNSYVSWFAHWGQGTLVTVSS VL: ELVVTQEPSLTVSPGGTVTLTCRSSNGAVTSSNYANWVQQKPGQAPRGLIGGTNKRAPGTPARFSGSLLGGKAALTLSGVQPEDEAVYYCALWYPNLWVFGGGTKLTVL | 0.0926
3 | CD3.248 (bispecific antibody, V domains shown, paTCE with PSMA.262; also called AC3679) VH: EVQLVESGGGIVQPGGSLRLSCAASGFTFNTYAMNWVRQAPGKGLEWVARIRSKKNNYATTYADSVKDRFTISRDDSKNTLYLQMNSLKTEDTAVYYCVRHENFGNSYVSWFAHWGQGTLVTVSS VL: ELVVTQEPSLTVSPGGTVTLTCRSSNGAVTSSNYANWVQQKPGQAPRGLIGGTNKRAPGTPARFSGSLLGGKAALTLSGVQPEDEAVYYCALWYPNLWVFGGGTKLTVL | 0.0492
4 | CD3.233 (bispecific antibody, V domains shown, paTCE with PSMA.262; also called AC3664) VH: EVQLVESGGGIVQPGGSLRLSCAASGFTFNTYAMNWVRQAPGKGLEWVGRIRTKYNNYATTYADSVKGRFTISRDDSKNTVYLQMNSLKTEDTAVYYCVRHENFGNSYVSWFAHWGQGTLVTVSS VL: ELVVTQEPSLTVSPGGTVTLTCRSSNGAVTSSNYANWVQQKPGQAPRGLIGGTNKRAPGTPARFSGSLLGGKAALTLSGVQPEDEAVYYCALWYPNLWVFGGGTKLTVL | 0.0249
5 | CD3.247 (bispecific antibody, V domains shown, paTCE with PSMA.262; also called AC3678) VH: EVQLVESGGGIVQPGGSLRLSCAASGFTFNTYAMNWVRQAPGKGLEWVARIRSKRNNYATTYADSVKDRFTISRDDSKNTLYLQMNSLKTEDTAVYYCVRHENFGNSYVSWFAHWGQGTLVTVSS VL: ELVVTQEPSLTVSPGGTVTLTCRSSNGAVTSSNYANWVQQKPGQAPRGLIGGTNKRAPGTPARFSGSLLGGKAALTLSGVQPEDEAVYYCALWYPNLWVFGGGTKLTVL | 0.0289
6 | CD3.237 (bispecific antibody, V domains shown, paTCE with PSMA.262; also called AC3668) VH: EVQLVESGGGIVQPGGSLRLSCAASGFTFNTYAMNWVRQAPGKGLEWVGRIRSKYNNGATYYADSVKGRFTISRDDSKNTVYLQMNELKTEDTAVYYCVRHENFGNSYVSWFAHWGQGTLVTVSS VL: ELVVTQEPSLTVSPGGTVTLTCRSSNGAVTSSNYANWVQQKPGQAPRGLIGGTNKRAPGTPARFSGSLLGGKAALTLSGVQPEDEAVYYCALWYPNLWVFGGGTKLTVL | 0.0222
7 | CD3.225 (bispecific antibody, V domains shown, paTCE with PSMA.262; also called AC3656) VH: EVQLVESGGGIVQPGGSLRLSCAASGFTFNTYAMNWVRQAPGKGLEWVGRIRTKYNNYATTYADSVKGRFTISRDDSKNTVYLQMNELKTEDTAVYYCVRHENFGNSYVSWFAHWGQGTLVTVSS VL: ELVVTQEPSLTVSPGGTVTLTCRSSNGAVTSSNYANWVQQKPGQAPRGLIGGTNKRAPGTPARFSGSLLGGKAALTLSGVQPEDEAVYYCALWYPNLWVFGGGTKLTVL | 0.0195
8 | CD3.236 (bispecific antibody, V domains shown, paTCE with PSMA.262; also called AC3667) VH: EVQLVESGGGIVQPGGSLRLSCAASGFTFNTYAMNWVRQAPGKGLEWVGRIRSKYNNGATYYADSVKGRFTISRDDSKNTVYLQMNSLKTEDTAVYYCVRHENFGNSYVSWFAHWGQGTLVTVSS VL: ELVVTQEPSLTVSPGGTVTLTCRSSNGAVTSSNYANWVQQKPGQAPRGLIGGTNKRAPGTPARFSGSLLGGKAALTLSGVQPEDEAVYYCALWYPNLWVFGGGTKLTVL | 0.0219
9 | CD3.244 (bispecific antibody, V domains shown, paTCE with PSMA.262; also called AC3675) VH: EVQLVESGGGIVQPGGSLRLSCAASGFTFNTYAMNWVRQAPGKGLEWVGRIRSKYNNGATYYADSVKGRFTISRDDSKNTLYLQMNSLKTEDTAVYYCVRHENFGNSYVSWFAHWGQGTLVTVSS VL: ELVVTQEPSLTVSPGGTVTLTCRSSNGAVTSSNYANWVQQKPGQAPRGLIGGTNKRAPGTPARFSGSLLGGKAALTLSGVQPEDEAVYYCALWYPNLWVFGGGTKLTVL | 0.0436
10 | CD3.238 (bispecific antibody, V domains shown, paTCE with PSMA.262; also called AC3669) VH: EVQLVESGGGIVQPGGSLRLSCAASGFTFNTYAMNWVRQAPGKGLEWVARIRTKYNNYATTYADSVKDRFTISRDDSKNTVYLQMNSLKTEDTAVYYCVRHENFGNSYVSWFAHWGQGTLVTVSS VL: ELVVTQEPSLTVSPGGTVTLTCRSSNGAVTSSNYANWVQQKPGQAPRGLIGGTNKRAPGTPARFSGSLLGGKAALTLSGVQPEDEAVYYCALWYPNLWVFGGGTKLTVL | 0.0231
11 | CD3.239 (bispecific antibody, V domains shown, paTCE with PSMA.262; also called AC3670) VH: EVQLVESGGGIVQPGGSLRLSCAASGFTFNTYAMNWVRQAPGKGLEWVARIRSKRNNYATTYADSVKDRFTISRDDSKNTVYLQMNSLKTEDTAVYYCVRHENFGNSYVSWFAHWGQGTLVTVSS VL: ELVVTQEPSLTVSPGGTVTLTCRSSNGAVTSSNYANWVQQKPGQAPRGLIGGTNKRAPGTPARFSGSLLGGKAALTLSGVQPEDEAVYYCALWYPNLWVFGGGTKLTVL | 0.0299
12 | CD3.246 (bispecific antibody, V domains shown, paTCE with PSMA.262; also called AC3677) VH: EVQLVESGGGIVQPGGSLRLSCAASGFTFNTYAMNWVRQAPGKGLEWVARIRTKYNNYATTYADSVKDRFTISRDDSKNTLYLQMNSLKTEDTAVYYCVRHENFGNSYVSWFAHWGQGTLVTVSS VL: ELVVTQEPSLTVSPGGTVTLTCRSSNGAVTSSNYANWVQQKPGQAPRGLIGGTNKRAPGTPARFSGSLLGGKAALTLSGVQPEDEAVYYCALWYPNLWVFGGGTKLTVL | 0.0352
13 | CD3.226 (bispecific antibody, V domains shown, paTCE with PSMA.262; also called AC3657) VH: EVQLVESGGGIVQPGGSLRLSCAASGFTFSTYAMNWVRQAPGKGLEWVGRIRTKYNNYATTYADSVKGRFTISRDDSKNTVYLQMNELKTEDTAVYYCVRHENFGNSYVSWFAHWGQGTLVTVSS VL: ELVVTQEPSLTVSPGGTVTLTCRSSNGAVTSSNYANWVQQKPGQAPRGLIGGTNKRAPGTPARFSGSLLGGKAALTLSGVQPEDEAVYYCALWYPNLWVFGGGTKLTVL | 0.0509

The next binders have a lower Kd than those just listed; values first:

Row | Kd [µM] | Binder
14 | 0.006 | CD3.223 (bispecific antibody, V domains shown, paTCE with PSMA.262; also called AC3654) VH: EVQLVESGGGIVQPGGSLRLSCAASGFTFNTYAMNWVRQAPGKGLEWVGRIRTKYNDYATYYADSVKGRFTISRDDSKNTVYLQMNELKTEDTAVYYCVRHENFGNSYVSWFAHWGQGTLVTVSS VL: ELVVTQEPSLTVSPGGTVTLTCRSSNGAVTSSNYANWVQQKPGQAPRGLIGGTNKRAPGTPARFSGSLLGGKAALTLSGVQPEDEAVYYCALWYPNLWVFGGGTKLTVL
15 | 0.0174 | CD3.234 (bispecific antibody, V domains shown, paTCE with PSMA.262; also called AC3665) VH: EVQLVESGGGIVQPGGSLRLSCAASGFTFSTYAMNWVRQAPGKGLEWVGRIRTKYNNYATTYADSVKGRFTISRDDSKNTVYLQMNSLKTEDTAVYYCVRHENFGNSYVSWFAHWGQGTLVTVSS VL: ELVVTQEPSLTVSPGGTVTLTCRSSNGAVTSSNYANWVQQKPGQAPRGLIGGTNKRAPGTPARFSGSLLGGKAALTLSGVQPEDEAVYYCALWYPNLWVFGGGTKLTVL
16 | 0.0165 | CD3.240 (bispecific antibody, V domains shown, paTCE with PSMA.262; also called AC3671) VH: EVQLVESGGGIVQPGGSLRLSCAASGFTFNTYAMNWVRQAPGKGLEWVARIRSKKNNYATTYADSVKDRFTISRDDSKNTVYLQMNSLKTEDTAVYYCVRHENFGNSYVSWFAHWGQGTLVTVSS VL: ELVVTQEPSLTVSPGGTVTLTCRSSNGAVTSSNYANWVQQKPGQAPRGLIGGTNKRAPGTPARFSGSLLGGKAALTLSGVQPEDEAVYYCALWYPNLWVFGGGTKLTVL
17 | 0.0051 | CD3.231 (bispecific antibody, V domains shown, paTCE with PSMA.262; also called AC3662) VH: EVQLVESGGGIVQPGGSLRLSCAASGFTFNTYAMNWVRQAPGKGLEWVGRIRTKYNDYATYYADSVKGRFTISRDDSKNTVYLQMNSLKTEDTAVYYCVRHENFGNSYVSWFAHWGQGTLVTVSS VL: ELVVTQEPSLTVSPGGTVTLTCRSSNGAVTSSNYANWVQQKPGQAPRGLIGGTNKRAPGTPARFSGSLLGGKAALTLSGVQPEDEAVYYCALWYPNLWVFGGGTKLTVL
18 | 0.0077 | CD3.242 (bispecific antibody, V domains shown, paTCE with PSMA.262; also called AC3673) VH: EVQLVESGGGIVQPGGSLRLSCAASGFTFNTYAMNWVRQAPGKGLEWVGRIRSKYNDYATYYADSVKGRFTISRDDSKNTLYLQMNSLKTEDTAVYYCVRHENFGNSYVSWFAHWGQGTLVTVSS VL: ELVVTQEPSLTVSPGGTVTLTCRSSNGAVTSSNYANWVQQKPGQAPRGLIGGTNKRAPGTPARFSGSLLGGKAALTLSGVQPEDEAVYYCALWYPNLWVFGGGTKLTVL
19 | 0.0051 | CD3.232 (bispecific antibody, V domains shown, paTCE with PSMA.262; also called AC3663) VH: EVQLVESGGGIVQPGGSLRLSCAASGFTFSTYAMNWVRQAPGKGLEWVGRIRTKYNDYATYYADSVKGRFTISRDDSKNTVYLQMNSLKTEDTAVYYCVRHENFGNSYVSWFAHWGQGTLVTVSS VL: ELVVTQEPSLTVSPGGTVTLTCRSSNGAVTSSNYANWVQQKPGQAPRGLIGGTNKRAPGTPARFSGSLLGGKAALTLSGVQPEDEAVYYCALWYPNLWVFGGGTKLTVL
20 | 0.0064 | CD3.224 (bispecific antibody, V domains shown, paTCE with PSMA.262; also called AC3655) VH: EVQLVESGGGIVQPGGSLRLSCAASGFTFSTYAMNWVRQAPGKGLEWVGRIRTKYNDYATYYADSVKGRFTISRDDSKNTVYLQMNELKTEDTAVYYCVRHENFGNSYVSWFAHWGQGTLVTVSS VL: ELVVTQEPSLTVSPGGTVTLTCRSSNGAVTSSNYANWVQQKPGQAPRGLIGGTNKRAPGTPARFSGSLLGGKAALTLSGVQPEDEAVYYCALWYPNLWVFGGGTKLTVL
21 | 0.0065 | CD3.235 (bispecific antibody, V domains shown, paTCE with PSMA.262; also called AC3666) VH: EVQLVESGGGIVQPGGSLRLSCAASGFTFNTYAMNWVRQAPGKGLEWVGRIRSKYNEYATYYADSVKGRFTISRDDSKNTVYLQMNSLKTEDTAVYYCVRHENFGNSYVSWFAHWGQGTLVTVSS VL: ELVVTQEPSLTVSPGGTVTLTCRSSNGAVTSSNYANWVQQKPGQAPRGLIGGTNKRAPGTPARFSGSLLGGKAALTLSGVQPEDEAVYYCALWYPNLWVFGGGTKLTVL

Source: patent US20260055205A1 (published 2026)
